For four molecules, Kd results are on record in PMC3891622, “The Sphingolipid Receptor S1PR2 Is a Receptor for Nogo-A Repressing Synaptic Plasticity” (PLoS Biology, 2014).

Assay [1] deals with T1, Fluorescently labeled recombinant Nogo-A-Δ20 (rat aa544-725) (rat, UniProt Q9JK11-1 544-725, fluorescent label (Amine Reactive Protein labeling kit RED, L001, Nano Temper technologies)).
T1 construct: Nogo-A (Rtn4), rat, residues 544-725 (Nogo-A-Δ20 domain); not shown: T7 or HA (His-/T7- or His-/HA-tagged)
T1 sequence (looked up): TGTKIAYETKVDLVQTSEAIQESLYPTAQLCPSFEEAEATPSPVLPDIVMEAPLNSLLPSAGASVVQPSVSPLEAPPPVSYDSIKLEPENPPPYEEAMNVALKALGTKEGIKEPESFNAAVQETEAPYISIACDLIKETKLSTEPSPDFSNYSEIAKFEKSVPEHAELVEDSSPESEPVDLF
Nature of the assay: MST; Monolith NT.115; fluorescently labeled Nogo-A-Δ20 constant (~40 nM), peptides serially diluted; PBS with 0.025% Tween-20, pH 7.4; LED 60%, IR laser 20%; non-linear regression with Hill coefficient 1.0. As to conditions: both partners purified.

In assay [2] the target is T2, Fluorescently labeled recombinant Nogo-A-Δ20 (rat aa544-725) (rat), Q9JK11.
T2 chain: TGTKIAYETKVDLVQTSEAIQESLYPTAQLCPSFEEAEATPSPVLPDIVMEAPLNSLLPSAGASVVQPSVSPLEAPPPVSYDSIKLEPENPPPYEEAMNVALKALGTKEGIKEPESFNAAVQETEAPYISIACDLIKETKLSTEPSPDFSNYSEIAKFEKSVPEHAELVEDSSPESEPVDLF
Described as above. As to conditions: remark: other sources report otherwise.

B1: S1PR2 N-terminus peptide (peptide)
peptide: MGGLYSEYLNPEKVQEHYNYTKETLDMQETPSRK
notes: Extracellular N-terminus of S1PR2; source: synthetic peptide (JPT Peptide Technologies)
For the molecule B1, the Kd in assay [1] is around 11 µM.

B2: S1PR2 extracellular loop 1 peptide (peptide)
peptide: LSGHVTLSLTPVQW
notes: Extracellular loop 1 of S1PR2; also called ECL1; source: synthetic peptide (JPT Peptide Technologies)
Regarding B2, the Kd in assay [1] was around 1.7 µM.

B3: S1PR2 extracellular loop 2 peptide (peptide)
peptide: NCLNQLEACSTVLPLYAKHYVL
modifications: here or on the partner: fluorescent label (Amine Reactive Protein labeling kit RED, L001, Nano Temper technologies)
Regarding B3, the Kd in assay [2] came out at 0.28 µM.

B4: S1PR2 extracellular loop 3 peptide (peptide)
peptide: SILLLDSTCPVRACPVLYK
modifications: here or on the partner: fluorescent label (Amine Reactive Protein labeling kit RED, L001, Nano Temper technologies)
With B4, the Kd in assay [2] came to 0.35 µM.
